Laboratory results reported in patent publication US12653899B2, “Multi-targeted, tunable, sustained delivery of payloads to charged avascular tissues” (Massachusetts Institute of Technology, priority 2019, dated 2026).

Experiments:
[1] = test system: human ankle cartilage explants; experiment: Quantitative uptake of fusion proteins in human ankle cartilage (uptake ratio); format: in vitro ADME; conditions: 1 μM in PBS + 1% BSA
Experimental: Cartilage explants were incubated in 250 μL of 1 μM solutions of different fusion proteins dissolved in 1×PBS+1% BSA for either 36 hours (FIG. 4A) or for 108 hours (FIG. 4B) (4.5 days). A group with free +9 GFP dissolved in 1×PBS+1% BSA (1 μM concentration) was included as a control for each of these two time points. An additional untreated control was included in these experiments. Cartilage explants were incubated in plain 1×PBS+1% BSA to account for and to correct for any autofluorescence effects. At the end of the incubation in the 1×PBS+1% BSA: The explants were transferred to a 10×PBS+1% BSA bath for 48 hours. The purpose of this was to desorb the GFPs taken up by the explants. The amount of GFPs left behind in the […] bath was quantified through fluorescence measurements. The desorption step in 10×PBS+1% BSA was followed by a second desorption step using fresh 10×PBS+1% BSA just to ensure any GFPs left in the explant after the 1st desorption come out. At the end of each desorption step, the fluorescence of the 10×PBS+1% BSA bath was measured. After the 2nd desorption step, the explants were digested in Proteinase K and their fluorescence was measured. The uptake ratio for the 36 hour and 108 hour experiments was calculated as (FIG. 4C): […]
Cartilage explants that had been equilibrated in culture medium post-harvest were transferred to sterile PBS and allowed to equilibrate for 1 hour before the start of the experiments. Sterile PBS solutions containing 1% bovine serum albumin (BSA) were prepared. Following this, 1 μM solutions of (+9GFP), (+9GFP)-(GGGGS)4-(IGF-1) (SEQ ID NO: 7), (+9GFP)-(EAAAK)3-(IGF-1) (SEQ ID NO: 8) and (+9GFP)-(GGGGS)3-(IGF-1) (SEQ ID NO: 9) were prepared. The BSA was included in the PBS to minimize loss of GFPs in the solution caused by non-specific binding to the plasticware. […] In contrast, use of polypropylene with 1% BSA enabled complete recovery of fluorescence.
At the end of the incubation period, cartilage explants were washed with PBS and transferred to a solution of 10×PBS+1% BSA for desorption. At the same time, the fluorescence of the absorption bath was measured using a plate reader (Synergy H1, Biotek Instruments Inc.) (excitation: 485 nm, emission: 528 nm). […] At the end of the desorption in 10×PBS+1% BSA, cartilage explants were weighed, and the fluorescence of the desorption bath was measured. This fluorescence measurement was used with a standard curve and the explant wet weights to calculate the concentration of GFP inside cartilage explants (mol/mg wet weight). The uptake ratio was calculated as the ratio of GFP concentration inside cartilage (mol/mg wet weight) to the final absorption bath concentration (mol/mL).

[2] = test system: human ankle cartilage explants treated with IL-1β; experiment: IL-1β cytokine challenge model, sGAG biosynthesis rate in human ankle cartilage explants; format: cell-based; conditions: 100 pg/ml (Experiment 5A also 500 pg/ml and 1000 pg/ml) human IL-1β alone; days 6-8
Experimental: Cartilage was harvested from the ankles of a donor (Collins Grade 1) and a donor (Collins Grade 1). Cartilage explants were equilibrated in culture media for 2 days after harvest. […] These were cut down to 1 mm thickness and allowed to equilibrate for a further 2 days before experiments were set up. Human IL-1β was used to induce osteoarthritis-like changes in cartilage. Experiments were set up to identify IL-1β doses at which 40 nM of free IGF-1 can rescue the IL-1β induced biosynthesis loss in cartilage. A dose response experiment in which single doses of (+9GFP)-(GGGGS)4-(IGF-1) (SEQ ID NO: 7) and (+9GFP)-(EAAAK)3-(IGF-1) (SEQ ID NO: 8) were added along with 100 pg/ml human IL-1β was also set up.
Experimental groups (N=8 to 10 cartilage explants in each group): Untreated control (Ctrl in FIG. 6A and FIG. 6B), 10 pg/mL human IL-1β (10 pg/ml IL-1b in FIG. 6A and FIG. 6B), 10 pg/mL human IL-1β+40 nM IGF-1 (10 pg/ml IL-1b+40 nM IGF-1 in FIG. 6A and FIG. 6B), 100 pg/mL human IL-1β (100 pg/ml IL-1b in FIG. 6A and FIG. 6B), 100 pg/mL human IL-1β+40 nM IGF-1 (100 pg/ml IL-1b+40 nM IGF-1 in FIG. 6A and FIG. 6B), 500 pg/mL human IL-1β (500 pg/ml IL-1b in FIG. 6A and […]), 500 pg/mL human IL-1β+40 nM IGF-1 (500 pg/ml IL-1b+40 nM IGF-1 in FIG. 6A and FIG. 6B), 1000 pg/mL human IL-1β (1 ng/ml IL-1b in FIG. 6A and FIG. 6B), 1000 pg/mL human IL-1β+40 nM IGF-1 (1 ng/ml IL-1b+40 nM IGF-1 in FIG. 6A and FIG. 6B). Media changes were performed every 2 days and the experiment was terminated after 8 days.
Chondrocyte biosynthesis rate (primarily aggrecan synthesis) was measured between days 6 and 8 of the experiment using a 35S-sulfate radiolabel. Statistics: 1-way ANOVA with post-hoc Tukey's HSD test.
This experiment was set up with cartilage explants from the donor ankle. Experimental groups (N=8 to 10 cartilage explants in each group): Untreated control (Ctrl in FIG. 6C), Continuous human IL-1β control (100 pg/ml dose added with every media change) (IL-1b in FIG. 6C), Continuous human IL-1β+continuous free IGF-1 control (100 pg/ml human IL-1β and 40 nM free IGF-1 dose added with every media change) (IL-1b+IGF1 FIG. 6C), Continuous human IL-1β+(+9GFP)-(GGGGS)4-(IGF-1) (SEQ ID NO: 7) 500 nM single dose (100 pg/ml human IL-1β added with every media change; Single 500 nM fusion protein dose added on Day 0) (IL-1b+0.5 μM Flex-1 in FIG. 6C), Continuous human IL-1β+(+9GFP)-(GGGGS)4-(IGF-1) (SEQ ID NO: 7) 1 μM single dose (100 pg/ml human IL-1β added with every media change; Single 1 μM fusion protein dose added on Day 0) (IL-1b+1 μM Flex-1 in FIG. 6C), Continuous human IL-1β+(+9GFP)-(EAAAK)3-(IGF-1) (SEQ ID NO: 8) 500 nM single dose (100 pg/ml human IL-1β added with every media change; Single 500 nM fusion protein dose added on Day 0), Continuous human IL-1β+(+9GFP)-(EAAAK)3-(IGF-1) (SEQ ID NO: 8) 1 μM single dose (100 pg/ml human IL-1β added with every media change; Single 1 μM fusion protein dose added on Day 0) (IL-1b+1 μM Rig-1 in FIG. 6C).
Preliminary dose response experiments were performed to test the effects of human IL-1β (PeproTech, Rocky Hill, NJ) on human ankle cartilage. Ankle cartilage explants from two different donors (equilibrated in culture medium post-harvest) were cultured in serum-free low glucose medium (same composition as equilibration medium) and treated with continuous IL-1β doses ranging from 10 pg/ml to 1 ng/ml for 8 days. The experiments also included groups of explants that were treated with 300 ng/ml free IGF-1 at each dose level of IL-1β. Based on the results of these experiments, 100 pg/ml IL-1β was chosen as the dose used for the fusion protein dose response experiments. In these experiments, ankle and knee cartilage explants (equilibrated in culture medium post-harvest) were treated continuously with IL-1β and received single doses of fusion proteins (ranging from 39.2 nM to 2 μM) at the start of the experiments. […]

[3] = test system: human ankle cartilage explants treated with IL-1β; experiment: Cumulative sGAG loss and final sGAG content (DMMB) in IL-1β challenge, human ankle cartilage; format: cell-based; conditions: 100 pg/ml IL-1β alone; 10-day time point
Experimental: Preliminary dose response experiments were performed to test the effects of human IL-1β (PeproTech, Rocky Hill, NJ) on human ankle cartilage. Ankle cartilage explants from two different donors (equilibrated in culture medium post-harvest) were cultured in serum-free low glucose medium (same composition as equilibration medium) and treated with continuous IL-1β doses ranging from 10 pg/ml to 1 ng/ml for 8 days. The experiments also included groups of explants that were treated with 300 ng/ml free IGF-1 at each dose level of IL-1β. Based on the results of these experiments, 100 pg/ml IL-1β was chosen as the dose used for the fusion protein dose response experiments. In these experiments, ankle and knee cartilage explants (equilibrated in culture medium post-harvest) were treated continuously with IL-1β and received single doses of fusion proteins (ranging from 39.2 nM to 2 μM) at the start of the experiments. Media changes with IL-1β but without fusion proteins were performed once every 2 to 3 days. An untreated control group, a control with continuous IL-1β alone, and a control with IL-1β combined with continuous free IGF-1 (300 ng/ml or 39.2 nM) were included. Experiments were terminated at 7-day and 10-day timepoints, and the sGAG biosynthesis rate, metabolic rate, sGAG loss to culture medium and sGAG content of the explants were measured.
The metabolic rate of cartilage explants was measured using the Alamar Blue assay (ThermoFisher). Cartilage explants were incubated for 3 hours in a 1× solution of Alamar Blue dissolved in culture medium. At the end of the incubation period, the absorbance of the medium at 570 nm and 600 nm was measured using a microplate reader (Synergy H1 Hybrid Multi-Mode Microplate Reader, BioTek). These readings were used to calculate the percentage reduction of Alamar Blue, which is directly proportional to the explant metabolic rate. These values were first normalized by individual explant weights. Following this, the weight-normalized readings for the treatment groups were normalized by the weight-normalized mean value for the untreated controls. To measure the chondrocyte biosynthesis rate of sulfated glycosaminoglycans (sGAGs), cartilage explants were cultured in the presence of 10 μCi/mL 35S-sulfate radiolabel during the final two days of each experiment. […] To calculate the cumulative loss of GAGs from the explants, the amount of sGAG lost to the medium and that left behind in the explants at the end of the experiment were measured using the dimethylene blue (DMMB) dye binding assay (Farndale et al., Biochim Biophys Acta. 883(2):173-177 (1986)).

## (+9GFP)-(GGGGS)3-(IGF-1): fusion protein of +9 GFP and human IGF-1 with flexible (GGGGS)3 linker, SEQ ID NO: 9
[1]; 36 hr
  Uptake ratio (Mean): 13.1
[1]; 108 hr
  Uptake ratio (Mean): 24.2

## IL-1β: human IL-1β (PeproTech), cytokine used to induce osteoarthritis-like biosynthesis loss in cartilage explants [reference compound]
[2]
  aggrecan biosynthesis compared to the untreated control: significant reduction
[3]
  cumulative sGAG loss compared to the untreated control: higher cumulative sGAG loss
